Source: patent US20250136717A1 (BYONDIS B V, published 2025)
Like-named read-outs stand apart in the source and are kept apart here.

Key:
[1] = target: T1, Biotinylated Human TROP2/TACSTD2 Protein, His Avitag, Cat. No. TR2-H82E5 (human, UniProt P09758 27-274, biotinylated); experiment: BLI, TROP2 on SAX tips
T1 construct: immobilized on SAX biosensor tips
T1 sequence (looked up): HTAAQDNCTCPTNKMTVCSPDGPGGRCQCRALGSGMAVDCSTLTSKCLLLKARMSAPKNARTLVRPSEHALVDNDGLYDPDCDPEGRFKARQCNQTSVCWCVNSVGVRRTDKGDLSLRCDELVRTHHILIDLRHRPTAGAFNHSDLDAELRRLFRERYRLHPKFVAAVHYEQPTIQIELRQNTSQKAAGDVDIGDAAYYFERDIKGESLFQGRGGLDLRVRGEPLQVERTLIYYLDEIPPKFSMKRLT
Source text: (§1) To correct for differences in concentration between the analyte stocks, Protein A binding was estimated for the same samples.
(§2) The 70s report point corresponds to 10s of association, since a baseline is created in the first 60 seconds.

[2] = target: T2, Protein A (Protein A sensor tips, Forte Bio, 18-5012) (UniProt P38507 37-327); experiment: BLI, Protein A tips
T2 construct: used to correct for the concentration of the antibody samples
Source text: as §1, §2

[3] = target: T1, Biotinylated Human TROP2/TACSTD2 …; experiment: BLI, TROP2 signal over Protein A signal
Source text: as §1, §2

[4] = target: T2, Protein A (Protein A sensor tips, Forte …); experiment: BLI, Protein A tips; remark: listed apart in the source
Source text: as §1, §2

[5] = target: T3, Biotinylated Human EpCAM/TROP1 Protein, Avitag His tag, Cat. No. EPM-H82E8 (human, UniProt P16422 24-265, biotinylated); experiment: BLI, EpCAM signal over Protein A signal
T3 construct: immobilized on SAX biosensor tips
T3 sequence (looked up): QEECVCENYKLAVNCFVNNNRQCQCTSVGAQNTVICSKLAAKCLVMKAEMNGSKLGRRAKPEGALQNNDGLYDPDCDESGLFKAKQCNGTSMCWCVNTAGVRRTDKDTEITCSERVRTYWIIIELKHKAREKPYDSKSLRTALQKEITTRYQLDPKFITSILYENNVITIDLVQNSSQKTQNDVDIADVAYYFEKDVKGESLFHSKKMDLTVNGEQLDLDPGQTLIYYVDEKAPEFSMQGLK
Source text: as §1, §2

[6] = target: T3, Biotinylated Human EpCAM/TROP1 Protein, …; experiment: BLI, EpCAM on SAX tips
Source text: as §1, §2

[7] = target: T2, Protein A (Protein A sensor tips, Forte …); experiment: BLI, Protein A tips; remark: listed apart in the source
Source text: as §1, §2

[8] = target: T3, Biotinylated Human EpCAM/TROP1 Protein, …; experiment: BLI, EpCAM on SAX tips; remark: listed apart in the source
Source text: as §1, §2

[9] = target: T3, Biotinylated Human EpCAM/TROP1 Protein, …; experiment: BLI, EpCAM signal over Protein A signal; remark: listed apart in the source
Source text: as §1, §2

[10] = target: T2, Protein A (Protein A sensor tips, Forte …); experiment: BLI, Protein A tips; remark: listed apart in the source
Source text: as §1

B1: S306 (antibody, human IgG1, kappa)
heavy: not shown
light: DIQLTQSPSSLSASVGDRVSITCKASQDVSIAVAWYQQKPGKAPKLLIYSASYRYTGVPDRFSGSGSGTDFTLTISSLQPEDFAVYYCQQHYITPLTFGAGTKVEIKRTVAAPSVFIFPPSDEQLKSGTASVVCLLNNFYPREAKVQWKVDNALQSGNSQESVTEQDSKDSTYSLSSTLTLSKADYEKHKVYACEVTHQGLSSPVTKSFNRGEC
notes: also called Anti-TROP2 sacituzumab hRS7 (naked)
TROP2 binding after 10 s of association [1]: 0.749 nm
Protein A binding after 10 s of association [2]: 0.915 nm
TROP2/Protein A * 1000 [3]: 818

B2: S303 (antibody, human IgG1, kappa)
heavy: not shown
light: ELQMTQSPSSLSASVGDRVTITCRTSQSISSYLNWYQQKPGQPPKLLIYWASTRESGVPDRFSGSGSGTDFTLTISSLQPEDSATYYCQQSYDIPYTFGQGTKLEIKRTVAAPSVFIFPPSDEQLKSGTASVVCLLNNFYPREAKVQWKVDNALQSGNSQESVTEQDSKDSTYSLSSTLTLSKADYEKHKVYACEVTHQGLSSPVTKSFNRGEC
notes: also called Anti-EpCAM adecatumumab (MT-201) (naked)
Protein A binding after 10 s of association [4]: 3.09 nm
EpCAM/Protein A * 1000 [5]: 599
EpCAM binding after 10 s of association [6]: 1.85 nm

B3: S304 (antibody, human IgG1, kappa)
heavy: not shown
light: QVQLVESGGGLVQPGGSLTLSCTASGFTLDHYDIGWFRQAPGKEREGVSCINNSDDDTYYADSVKGRFTIFMNNAKDTVYLQMNSLKPEDTAIYYCAEARGCKRGRYEYDFWGQGTQVTVSSGGGGSPLGLAGGGSELQMTQSPSSLSASVGDRVTITCRTSQSISSYLNWYQQKPGQPPKLLIYWASTRESGVPDRFSGSGSGTDFTLTISSLQPEDSATYYCQQSYDIPYTFGQGTKLEIKRTVAAPSVFIFPPSDEQLKSGTASVVCLLNNFYPREAKVQWKVDNALQSGNSQESVTEQDSKDSTYSLSSTLTLSKADYEKHKVYACEVTHQGLSSPVTKSFNRGEC
notes: also called masked adecatumumab Qg-BC2T-L9-HC / BC2-Nb-L9-LC
Protein A binding after 10 s of association [4]: 1.35 nm
EpCAM/Protein A * 1000 [5]: 18.3
EpCAM binding after 10 s of association [6]: 0.0247 nm

B4: S305 (antibody, human IgG1, kappa)
heavy: not shown
light: QVQLVESGGGLVQPGGSLTLSCTASGFTLDHYDIGWFRQAPGKEREGVSCINNSDDDTYYADSVKGRFTIFMNNAKDTVYLQMNSLKPEDTAIYYCAEARGCKRGRYEYDFWGQGTQVTVSSGGGGSPLGLAGGGSELQMTQSPSSLSASVGDRVTITCRTSQSISSYLNWYQQKPGQPPKLLIYWASTRESGVPDRFSGSGSGTDFTLTISSLQPEDSATYYCQQSYDIPYTFGQGTKLEIKRTVAAPSVFIFPPSDEQLKSGTASVVCLLNNFYPREAKVQWKVDNALQSGNSQESVTEQDSKDSTYSLSSTLTLSKADYEKHKVYACEVTHQGLSSPVTKSFNRGEC
notes: also called masked P41C adecatumumab Qg-BC2T-L9-HC (P41C) / BC2-Nb-L9-LC
Protein A binding after 10 s of association [4]: 1.31 nm
EpCAM/Protein A * 1000 [5]: 14.5
EpCAM binding after 10 s of association [6]: 0.0189 nm

B5: S300 (antibody, human IgG1, kappa)
heavy: not shown
light: DIVMTQSALSNPVTLGESGSISCRSSKSLLHSNGITYLYWYLQKPGQSPQLLIYQMSNRASGVPDRFSSSGSGTDFTLKISRVEAEDVGVYYCAQNLELPRTFGQGTKLEMKRTVAAPSVFIFPPSDEQLKSGTASVVCLLNNFYPREAKVQWKVDNALQSGNSQESVTEQDSKDSTYSLSSTLTLSKADYEKHKVYACEVTHQGLSSPVTKSFNRGEC
notes: also called Anti-EpCAM ING-1 (naked)
Protein A binding after 10 s of association [7]: 0.95 nm
EpCAM binding after 10 s of association [8]: 0.947 nm
EpCAM/Protein A * 1000 [9]: 997

B6: S307 (antibody, human IgG1, kappa)
heavy: not shown
light: QVQLVESGGGLVQPGGSLTLSCTASGFTLDHYDIGWFRQAPGKEREGVSCINNSDDDTYYADSVKGRFTIFMNNAKDTVYLQMNSLKPEDTAIYYCAEARGCKRGRYEYDFWGQGTQVTVSSGGGGSPLGLAGGGSDIQLTQSPSSLSASVGDRVSITCKASQDVSIAVAWYQQKPGKAPKLLIYSASYRYTGVPDRFSGSGSGTDFTLTISSLQPEDFAVYYCQQHYITPLTFGAGTKVEIKRTVAAPSVFIFPPSDEQLKSGTASVVCLLNNFYPREAKVQWKVDNALQSGNSQESVTEQDSKDSTYSLSSTLTLSKADYEKHKVYACEVTHQGLSSPVTKSFNRGEC
notes: also called masked sacituzumab Qg-BC2T-L9-HC / BC2-Nb-L9-LC
TROP2 binding after 10 s of association [1]: 0.0345 nm
Protein A binding after 10 s of association [2]: 1.11 nm
TROP2/Protein A * 1000 [3]: 31.1

B7: S308 (antibody, human IgG1, kappa)
heavy: not shown
light: QVQLVESGGGLVQPGGSLTLSCTASGFTLDHYDIGWFRQAPGKEREGVSCINNSDDDTYYADSVKGRFTIFMNNAKDTVYLQMNSLKPEDTAIYYCAEARGCKRGRYEYDFWGQGTQVTVSSGGGGSPLGLAGGGSDIQLTQSPSSLSASVGDRVSITCKASQDVSIAVAWYQQKPGKAPKLLIYSASYRYTGVPDRFSGSGSGTDFTLTISSLQPEDFAVYYCQQHYITPLTFGAGTKVEIKRTVAAPSVFIFPPSDEQLKSGTASVVCLLNNFYPREAKVQWKVDNALQSGNSQESVTEQDSKDSTYSLSSTLTLSKADYEKHKVYACEVTHQGLSSPVTKSFNRGEC
notes: also called masked P41C sacituzumab Qg-BC2T-L9-HC (P41C) / BC2-Nb-L9-LC
TROP2 binding after 10 s of association [1]: 0.0154 nm
Protein A binding after 10 s of association [2]: 0.646 nm
TROP2/Protein A * 1000 [3]: 23.8

B8: S310 (antibody, human IgG1, kappa)
heavy: not shown
light: QVQLVESGGGLVQPGGSLTLSCTASGFTLDHYDIGWFRQAPGKEREGVSCINNSDDDTYYADSVKGRFTIFMNNAKDTVYLQMNSLKPEDTAIYYCAEARGCKRGRYEYDFWGQGTQVTVSSGGGGSPLGLAGGGSDIQMTQSPSSLSASVGDRVTITCKASQDIRKYLNWYQQKPGKAPKLLIYYATSLADGVPSRFSGSGSGTDYTFTISSLQPEDIATYYCLQHGESPYTFGQGTKLEITRTVAAPSVFIFPPSDEQLKSGTASVVCLLNNFYPREAKVQWKVDNALQSGNSQESVTEQDSKDSTYSLSSTLTLSKADYEKHKVYACEVTHQGLSSPVTKSFNRGEC
notes: also called masked MORAb-066 Qg-BC2T-L9-HC / BC2-Nb-L9-LC
Protein A binding after 10 s of association [10]: 0.993 nm

B9: S311 (antibody, human IgG1, kappa)
heavy: not shown
light: QVQLVESGGGLVQPGGSLTLSCTASGFTLDHYDIGWFRQAPGKEREGVSCINNSDDDTYYADSVKGRFTIFMNNAKDTVYLQMNSLKPEDTAIYYCAEARGCKRGRYEYDFWGQGTQVTVSSGGGGSPLGLAGGGSDIQMTQSPSSLSASVGDRVTITCKASQDIRKYLNWYQQKPGKAPKLLIYYATSLADGVPSRFSGSGSGTDYTFTISSLQPEDIATYYCLQHGESPYTFGQGTKLEITRTVAAPSVFIFPPSDEQLKSGTASVVCLLNNFYPREAKVQWKVDNALQSGNSQESVTEQDSKDSTYSLSSTLTLSKADYEKHKVYACEVTHQGLSSPVTKSFNRGEC
notes: also called masked P41C MORAb-066 Qg-BC2T-L9-HC (P41C) / BC2-Nb-L9-LC
Protein A binding after 10 s of association [10]: 1.33 nm

B10: S301 (antibody, human IgG1, kappa)
heavy: not shown
light: QVQLVESGGGLVQPGGSLTLSCTASGFTLDHYDIGWFRQAPGKEREGVSCINNSDDDTYYADSVKGRFTIFMNNAKDTVYLQMNSLKPEDTAIYYCAEARGCKRGRYEYDFWGQGTQVTVSSGGGGSPLGLAGGGSDIVMTQSALSNPVTLGESGSISCRSSKSLLHSNGITYLYWYLQKPGQSPQLLIYQMSNRASGVPDRFSSSGSGTDFTLKISRVEAEDVGVYYCAQNLELPRTFGQGTKLEMKRTVAAPSVFIFPPSDEQLKSGTASVVCLLNNFYPREAKVQWKVDNALQSGNSQESVTEQDSKDSTYSLSSTLTLSKADYEKHKVYACEVTHQGLSSPVTKSFNRGEC
notes: also called masked ING-1 Qg-BC2T-L9-HC / BC2-Nb-L9-LC
Protein A binding after 10 s of association [7]: 0.541 nm
EpCAM binding after 10 s of association [8]: 0.074 nm
EpCAM/Protein A * 1000 [9]: 137

B11: S302 (antibody, human IgG1, kappa)
heavy: not shown
light: QVQLVESGGGLVQPGGSLTLSCTASGFTLDHYDIGWFRQAPGKEREGVSCINNSDDDTYYADSVKGRFTIFMNNAKDTVYLQMNSLKPEDTAIYYCAEARGCKRGRYEYDFWGQGTQVTVSSGGGGSPLGLAGGGSDIVMTQSALSNPVTLGESGSISCRSSKSLLHSNGITYLYWYLQKPGQSPQLLIYQMSNRASGVPDRFSSSGSGTDFTLKISRVEAEDVGVYYCAQNLELPRTFGQGTKLEMKRTVAAPSVFIFPPSDEQLKSGTASVVCLLNNFYPREAKVQWKVDNALQSGNSQESVTEQDSKDSTYSLSSTLTLSKADYEKHKVYACEVTHQGLSSPVTKSFNRGEC
notes: also called masked P41C ING-1 Qg-BC2T-L9-HC (P41C) / BC2-Nb-L9-LC
Protein A binding after 10 s of association [7]: 0.275 nm
EpCAM binding after 10 s of association [8]: 0.0354 nm
EpCAM/Protein A * 1000 [9]: 129

B12: S309 (antibody, human IgG1, kappa)
heavy: not shown
light: DIQMTQSPSSLSASVGDRVTITCKASQDIRKYLNWYQQKPGKAPKLLIYYATSLADGVPSRFSGSGSGTDYTFTISSLQPEDIATYYCLQHGESPYTFGQGTKLEITRTVAAPSVFIFPPSDEQLKSGTASVVCLLNNFYPREAKVQWKVDNALQSGNSQESVTEQDSKDSTYSLSSTLTLSKADYEKHKVYACEVTHQGLSSPVTKSFNRGEC
notes: also called Anti-TF MORAb-066, CNT0860 (naked)
Protein A binding after 10 s of association [10]: 1.79 nm
